In paper PMC4508897:

Biological target: human wt Ecad-GFP (wild-type E-cadherin fused to EGFP) (human) (UniProt P12830)
Experiment: TEM of gold nanoparticle

percent of NPs at <15 nm from their nearest neighbour: 20.6%
Substance: human wt Ecad-GFP (wild-type E-cadherin fused to EGFP) (from UniProt P12830 23-882) (natural protein)
